Laboratory results as given in the supplement of paper PMC10065799, “High-throughput profiling of sequence recognition by tyrosine kinases and SH2 domains using bacterial peptide display” (eLife, 2023).

Tests used:
AncSZ = experiment: phosphorylation enrichment, bacterial display (enrichment ratio); higher = better substrate or ligand; peptides without Tyr show the background
EPHB1 = EPHB1 (UniProt P54762); experiment: as above
EPHB2 = EPHB2 (UniProt P29323); experiment: as above
FGFR1 = FGFR1 (UniProt P11362); experiment: as above
FGFR3 = FGFR3 (UniProt P22607); experiment: as above
Fer (mouse) = experiment: as above
Fes = Fes (UniProt P07332); experiment: as above
Chain of Fes (P07332 whole entry, looked up): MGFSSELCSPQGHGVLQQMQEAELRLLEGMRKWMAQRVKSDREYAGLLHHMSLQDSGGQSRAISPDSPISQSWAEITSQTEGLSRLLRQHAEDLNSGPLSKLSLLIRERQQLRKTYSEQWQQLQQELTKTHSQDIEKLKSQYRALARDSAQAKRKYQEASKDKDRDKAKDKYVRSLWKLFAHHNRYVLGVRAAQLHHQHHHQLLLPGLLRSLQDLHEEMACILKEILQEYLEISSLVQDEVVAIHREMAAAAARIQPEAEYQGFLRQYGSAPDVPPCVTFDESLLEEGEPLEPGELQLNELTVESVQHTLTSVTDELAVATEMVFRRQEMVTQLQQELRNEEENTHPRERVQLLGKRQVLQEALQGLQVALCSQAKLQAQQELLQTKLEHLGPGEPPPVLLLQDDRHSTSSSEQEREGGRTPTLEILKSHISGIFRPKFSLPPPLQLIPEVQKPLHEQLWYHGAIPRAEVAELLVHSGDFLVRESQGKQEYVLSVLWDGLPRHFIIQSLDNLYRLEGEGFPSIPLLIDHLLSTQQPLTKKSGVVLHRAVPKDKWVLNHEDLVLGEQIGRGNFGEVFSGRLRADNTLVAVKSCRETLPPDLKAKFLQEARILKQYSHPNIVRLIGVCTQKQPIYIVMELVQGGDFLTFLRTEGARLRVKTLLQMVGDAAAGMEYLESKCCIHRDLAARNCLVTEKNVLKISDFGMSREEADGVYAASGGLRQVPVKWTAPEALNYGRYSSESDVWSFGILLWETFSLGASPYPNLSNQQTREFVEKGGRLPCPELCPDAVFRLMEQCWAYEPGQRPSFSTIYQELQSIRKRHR

Fyn = Fyn (UniProt P06241); experiment: as above
Chain of Fyn (P06241 whole entry, looked up): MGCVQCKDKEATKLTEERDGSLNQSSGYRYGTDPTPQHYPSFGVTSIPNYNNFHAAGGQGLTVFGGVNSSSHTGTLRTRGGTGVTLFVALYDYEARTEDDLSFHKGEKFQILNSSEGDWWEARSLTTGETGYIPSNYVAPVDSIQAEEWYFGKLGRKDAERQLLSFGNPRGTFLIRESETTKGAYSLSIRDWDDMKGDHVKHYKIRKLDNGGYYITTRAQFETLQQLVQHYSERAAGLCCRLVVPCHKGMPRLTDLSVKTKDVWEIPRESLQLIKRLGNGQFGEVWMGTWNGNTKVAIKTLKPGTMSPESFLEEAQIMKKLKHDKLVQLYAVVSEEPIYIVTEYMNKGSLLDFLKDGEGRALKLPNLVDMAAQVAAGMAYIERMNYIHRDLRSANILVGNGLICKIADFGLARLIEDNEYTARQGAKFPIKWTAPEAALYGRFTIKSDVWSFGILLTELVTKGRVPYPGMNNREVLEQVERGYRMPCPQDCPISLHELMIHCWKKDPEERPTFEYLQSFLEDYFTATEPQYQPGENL

Hck = Hck (UniProt P08631); experiment: as above
Chain of Hck (P08631 whole entry, looked up): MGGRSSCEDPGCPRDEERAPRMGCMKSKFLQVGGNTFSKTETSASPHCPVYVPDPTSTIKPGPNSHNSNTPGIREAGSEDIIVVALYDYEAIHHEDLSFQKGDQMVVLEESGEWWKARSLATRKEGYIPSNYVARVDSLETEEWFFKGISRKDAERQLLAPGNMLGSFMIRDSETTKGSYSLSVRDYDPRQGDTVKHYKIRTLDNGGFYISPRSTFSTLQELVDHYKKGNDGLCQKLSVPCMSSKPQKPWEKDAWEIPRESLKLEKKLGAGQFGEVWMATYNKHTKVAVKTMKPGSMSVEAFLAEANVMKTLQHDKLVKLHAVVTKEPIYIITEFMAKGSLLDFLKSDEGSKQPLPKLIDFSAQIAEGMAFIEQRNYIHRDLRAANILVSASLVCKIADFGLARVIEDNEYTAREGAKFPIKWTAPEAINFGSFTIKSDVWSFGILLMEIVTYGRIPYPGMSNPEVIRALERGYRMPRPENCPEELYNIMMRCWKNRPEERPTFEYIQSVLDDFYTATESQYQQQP

Jak2 = Jak2 (UniProt O60674); experiment: as above
MERTK = MERTK (UniProt Q12866); experiment: as above
Chain of MERTK (Q12866 whole entry, looked up): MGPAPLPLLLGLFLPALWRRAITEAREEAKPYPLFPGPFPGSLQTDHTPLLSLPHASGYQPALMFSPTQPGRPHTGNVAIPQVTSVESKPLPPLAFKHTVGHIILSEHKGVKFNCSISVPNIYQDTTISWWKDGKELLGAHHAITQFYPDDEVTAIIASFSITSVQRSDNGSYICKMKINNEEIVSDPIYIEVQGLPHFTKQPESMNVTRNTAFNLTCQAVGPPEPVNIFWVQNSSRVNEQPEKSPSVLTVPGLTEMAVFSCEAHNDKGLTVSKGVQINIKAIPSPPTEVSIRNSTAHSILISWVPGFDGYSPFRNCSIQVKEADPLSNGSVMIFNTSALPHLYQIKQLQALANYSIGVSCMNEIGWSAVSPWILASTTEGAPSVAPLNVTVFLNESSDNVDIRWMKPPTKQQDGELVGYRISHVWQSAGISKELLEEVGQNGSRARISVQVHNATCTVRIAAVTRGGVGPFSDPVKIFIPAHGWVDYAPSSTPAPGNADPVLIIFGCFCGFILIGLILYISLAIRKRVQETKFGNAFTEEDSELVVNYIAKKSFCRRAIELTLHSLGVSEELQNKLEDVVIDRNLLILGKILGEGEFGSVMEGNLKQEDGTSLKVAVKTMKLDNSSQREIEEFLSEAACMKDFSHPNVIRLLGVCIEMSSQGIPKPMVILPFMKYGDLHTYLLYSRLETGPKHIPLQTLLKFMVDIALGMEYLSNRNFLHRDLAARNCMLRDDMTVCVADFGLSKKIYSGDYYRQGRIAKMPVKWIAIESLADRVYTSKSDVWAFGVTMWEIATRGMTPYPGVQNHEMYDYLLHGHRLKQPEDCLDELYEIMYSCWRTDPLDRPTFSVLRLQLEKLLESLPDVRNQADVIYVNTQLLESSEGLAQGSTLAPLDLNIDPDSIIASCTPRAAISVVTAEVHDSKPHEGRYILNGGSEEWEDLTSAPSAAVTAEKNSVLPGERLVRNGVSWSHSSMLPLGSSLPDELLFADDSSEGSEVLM

c-Abl (mouse) = experiment: as above
c-Src = experiment: as above
Grb2 SH2 = Grb2 SH2 (UniProt P62993); experiment: SH2 binding enrichment of the phosphorylated peptide, bacterial display (enrichment ratio); higher = better substrate or ligand; peptides without Tyr show the background
SHP2-C SH2 = experiment: as above
c-Src SH2 = experiment: as above
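For SH2 binding enrichment of the phosphorylated peptide, bacterial display in this document: peptide library displayed on the E. coli surface as eCPX fusions, selected cells deep-sequenced, score is each peptide's frequency after selection divided by its frequency in the input.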
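For phosphorylation enrichment, bacterial display in this document: 11-residue human phosphosite peptides and single-mutation variants displayed on the E. coli surface, counted by deep sequencing, each peptide's frequency after selection divided by its frequency in the unselected input library; frequency after pTyr selection over input frequency; kinase dosed for 20-30% of maximal phosphorylation in three min.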

Chain of EPHB2 (P29323 whole entry, looked up): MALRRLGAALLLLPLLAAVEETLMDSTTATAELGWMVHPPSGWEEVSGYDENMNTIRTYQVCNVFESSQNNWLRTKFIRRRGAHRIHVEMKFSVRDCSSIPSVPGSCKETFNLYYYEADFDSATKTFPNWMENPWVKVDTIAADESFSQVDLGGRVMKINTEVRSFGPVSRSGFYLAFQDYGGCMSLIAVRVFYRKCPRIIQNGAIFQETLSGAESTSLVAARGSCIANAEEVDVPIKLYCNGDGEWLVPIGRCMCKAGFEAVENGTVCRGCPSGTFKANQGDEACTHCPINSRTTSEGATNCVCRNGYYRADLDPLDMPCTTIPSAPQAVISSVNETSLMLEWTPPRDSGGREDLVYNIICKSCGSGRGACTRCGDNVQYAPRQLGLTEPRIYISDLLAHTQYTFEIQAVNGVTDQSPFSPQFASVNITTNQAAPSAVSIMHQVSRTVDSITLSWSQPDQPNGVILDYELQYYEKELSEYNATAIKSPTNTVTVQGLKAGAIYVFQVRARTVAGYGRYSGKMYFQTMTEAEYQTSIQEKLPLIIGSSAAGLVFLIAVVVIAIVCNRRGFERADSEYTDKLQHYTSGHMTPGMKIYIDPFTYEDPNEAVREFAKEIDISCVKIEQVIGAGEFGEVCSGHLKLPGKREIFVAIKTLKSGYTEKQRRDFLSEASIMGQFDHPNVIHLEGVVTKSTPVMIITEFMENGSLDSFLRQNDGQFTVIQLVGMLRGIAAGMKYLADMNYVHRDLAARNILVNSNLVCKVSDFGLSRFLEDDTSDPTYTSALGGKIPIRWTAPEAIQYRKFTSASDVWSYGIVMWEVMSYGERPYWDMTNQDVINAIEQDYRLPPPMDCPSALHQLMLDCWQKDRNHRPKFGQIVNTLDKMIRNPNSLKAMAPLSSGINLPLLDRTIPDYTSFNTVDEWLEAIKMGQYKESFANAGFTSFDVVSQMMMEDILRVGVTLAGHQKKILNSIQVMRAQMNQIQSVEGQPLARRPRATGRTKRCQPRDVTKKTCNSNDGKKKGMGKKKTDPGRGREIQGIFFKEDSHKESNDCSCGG
Chain of EPHB1 (P54762 whole entry, looked up): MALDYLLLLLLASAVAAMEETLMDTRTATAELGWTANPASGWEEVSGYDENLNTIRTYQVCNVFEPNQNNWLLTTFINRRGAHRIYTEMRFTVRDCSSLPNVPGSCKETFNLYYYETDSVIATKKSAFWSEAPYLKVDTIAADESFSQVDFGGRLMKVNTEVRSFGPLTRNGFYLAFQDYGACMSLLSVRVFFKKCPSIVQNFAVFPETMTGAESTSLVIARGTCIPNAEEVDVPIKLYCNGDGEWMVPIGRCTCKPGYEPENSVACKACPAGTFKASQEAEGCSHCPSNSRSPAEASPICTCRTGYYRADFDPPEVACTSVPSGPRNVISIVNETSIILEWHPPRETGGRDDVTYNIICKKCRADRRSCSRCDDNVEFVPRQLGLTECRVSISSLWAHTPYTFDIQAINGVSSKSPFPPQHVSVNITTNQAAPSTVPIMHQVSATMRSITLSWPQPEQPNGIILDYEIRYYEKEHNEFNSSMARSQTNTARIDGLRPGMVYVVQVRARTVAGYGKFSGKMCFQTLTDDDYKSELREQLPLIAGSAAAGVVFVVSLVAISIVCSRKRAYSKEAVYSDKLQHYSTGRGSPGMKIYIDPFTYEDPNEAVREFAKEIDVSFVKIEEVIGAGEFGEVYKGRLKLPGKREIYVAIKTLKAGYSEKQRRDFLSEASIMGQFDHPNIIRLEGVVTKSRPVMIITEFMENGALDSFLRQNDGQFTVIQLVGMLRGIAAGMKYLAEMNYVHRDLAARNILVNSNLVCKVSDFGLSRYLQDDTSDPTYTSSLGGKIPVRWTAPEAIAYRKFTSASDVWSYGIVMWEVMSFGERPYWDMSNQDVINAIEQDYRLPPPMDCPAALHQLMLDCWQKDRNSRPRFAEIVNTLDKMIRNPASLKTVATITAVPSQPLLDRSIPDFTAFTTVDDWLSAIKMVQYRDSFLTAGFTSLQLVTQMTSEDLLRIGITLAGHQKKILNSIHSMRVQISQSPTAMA

Sequence | SH2 binding enrichment (Grb2 SH2) | SH2 binding enrichment (SHP2-C SH2) | SH2 binding enrichment (c-Src SH2) | phosphorylation enrichment (AncSZ) | phosphorylation enrichment (EPHB1) | phosphorylation enrichment (EPHB2) | phosphorylation enrichment (FGFR1) | phosphorylation enrichment (FGFR3) | phosphorylation enrichment (Fer (mouse)) | phosphorylation enrichment (Fes) | phosphorylation enrichment (Fyn) | phosphorylation enrichment (Hck) | phosphorylation enrichment (Jak2) | phosphorylation enrichment (MERTK) | phosphorylation enrichment (c-Abl (mouse)) | phosphorylation enrichment (c-Src)
EGWQVYRLGAR [MISP_Y95] | 0.901 | 0.662 | 0.515 | 0.9 | 0.493 | 0.439 | 0.5 | 0.607 | 0.396 | 0.857 | 2.59 | 1.12 | 0.697 | 0.423 | 0.625 | 4.5
EQYELYCEMGS [CBL_Y371] | 0.89 | 0.776 | 0.629 | 3.8 | 7.29 | 8.68 | 4.55 | 4.12 | 3.7 | 1.61 | 4.26 | 5.35 | 1.37 | 5.03 | 1.08 | 4.14
MKSIKYMDKEV [CCDC60_Y41_I46V] | 0.742 | 0.515 | 0.413 | 0.664 | 0.325 | 0.316 | 0.437 | 0.545 | 0.355 | 0.554 | 0.344 | 0.399 | 0.567 | 0.334 | 0.492 | 0.375
QWLEQYTQAIE [LSP1_Y234] | 0.876 | 0.574 | 0.709 | 1.4 | 0.579 | 0.623 | 0.489 | 0.589 | 0.473 | 1.15 | 0.596 | 0.699 | 0.924 | 0.37 | 10.2 | 0.406
QFPDIYAREEV [CRX_Y67_V66I_YF] | 1.02 | 0.9 | 0.525 | 1.82 | 0.628 | 1.21 | 1.15 | 1.26 | 0.707 | 1.91 | 0.959 | 1.56 | 2.02 | 0.773 | 0.99 | 1.23
SLIDMYSEVPD [OPA1_Y268_L272P] | 0.675 | 0.7 | 0.545 | 1.27 | 0.48 | 0.679 | 0.892 | 0.895 | 0.422 | 1.03 | 0.595 | 0.594 | 1.24 | 0.604 | 0.619 | 0.747
PLFKIYVAELI [MRPL28_Y230] | 0.82 | 0.634 | 0.574 | 2.14 | 0.919 | 0.772 | 0.806 | 1.54 | 0.978 | 2.35 | 0.658 | 0.738 | 1.71 | 0.707 | 0.947 | 0.791
PVKSEYSSIKL [NPC2_Y119_P120S] | 0.665 | 4.74 | 1.95 | 0.783 | 0.579 | 0.533 | 0.518 | 0.523 | 0.702 | 1.06 | 0.553 | 1.11 | 0.737 | 0.5 | 1.03 | 0.602
ISRASYYRKGG [ALK_Y1282_Y1278S] | 0.655 | 0.426 | 0.362 | 0.588 | 0.427 | 0.428 | 0.409 | 0.532 | 0.473 | 0.701 | 0.511 | 0.496 | 0.51 | 0.576 | 0.569 | 0.509
IIAVHYVLEES [RYR2_Y4559] | 1.41 | 1.28 | 1.09 | 1 | 0.565 | 0.628 | 0.557 | 0.626 | 0.501 | 2.04 | 0.457 | 0.516 | 0.963 | 0.484 | 0.676 | 0.488
ESPGLCGFLNV [BCR_Y910_Y910C] | 0.622 | 0.63 | 0.377 | 1.01 | 0.595 | 0.617 | 0.557 | 0.72 | 0.476 | 1.38 | 0.494 | 0.487 | 0.979 | 0.519 | 0.844 | 0.453
KNRDVYSSDFF [USP24_Y2134_YF] | 0.916 | 0.55 | 0.588 | 0.651 | 1.69 | 1.73 | 0.718 | 0.544 | 0.429 | 0.828 | 0.833 | 0.832 | 0.693 | 3.39 | 0.752 | 0.952
CTTIHYNFMRN [TP53_Y234_C238R_YF] | 0.949 | 0.896 | 0.773 | 1.03 | 0.605 | 0.626 | 0.567 | 0.993 | 0.571 | 1.07 | 0.568 | 0.577 | 0.889 | 0.489 | 0.767 | 0.449
RHPEVYHHLGI [NVL_Y290_V295I] | 1.09 | 1.11 | 0.932 | 0.694 | 0.837 | 0.599 | 1.14 | 0.999 | 0.641 | 0.835 | 0.908 | 1.53 | 0.834 | 0.71 | 0.731 | 0.621
NTYENYWPFYQ [GATM_Y103_K102N] | 9.03 | 1.81 | 2.78 | 2.72 | 17.2 | 22.2 | 14.3 | 12.4 | 8.56 | 4.54 | 9.01 | 7.34 | 5.55 | 9.93 | 2.79 | 7.27
ATGGFYSFGGG [KRT24_Y120_YF] | 0.749 | 0.569 | 0.425 | 0.678 | 0.7 | 0.499 | 0.481 | 0.502 | 2.46 | 0.953 | 3.93 | 1.83 | 0.706 | 7.38 | 0.562 | 1.83
HRGCLYLAIEF [TEK_Y899_Y897C_YF] | 0.686 | 0.316 | 0.206 | 1.29 | 0.758 | 1.81 | 0.667 | 1.17 | 0.511 | 1.37 | 0.26 | 0.367 | 1.33 | 0.467 | 1.31 | 0.49

Further lines, with some results ahead:

SH2 binding enrichment (Grb2 SH2) | SH2 binding enrichment (SHP2-C SH2) | SH2 binding enrichment (c-Src SH2) | Sequence | phosphorylation enrichment (AncSZ) | phosphorylation enrichment (EPHB1) | phosphorylation enrichment (EPHB2) | phosphorylation enrichment (FGFR1) | phosphorylation enrichment (FGFR3) | phosphorylation enrichment (Fer (mouse)) | phosphorylation enrichment (Fes) | phosphorylation enrichment (Fyn) | phosphorylation enrichment (Hck) | phosphorylation enrichment (Jak2) | phosphorylation enrichment (MERTK) | phosphorylation enrichment (c-Abl (mouse)) | phosphorylation enrichment (c-Src)
0.78 | 0.392 | 0.447 | KQRKEYMHRRQ [IQGAP2_Y710] | 0.696 | 0.551 | 0.444 | 0.375 | 0.519 | 0.437 | 0.715 | 0.477 | 0.526 | 0.636 | 0.452 | 0.649 | 0.518
0.598 | 0.565 | 0.39 | KLFFIYTPGTT [SLC27A4_Y245_S247P_YF] | 1.49 | 0.637 | 0.675 | 0.553 | 0.877 | 0.521 | 1.49 | 0.447 | 0.509 | 1.45 | 0.363 | 0.848 | 0.46
0.984 | 0.752 | 0.49 | VHNLDYYKQTT [FGFR3_Y647_K650Q] | 0.934 | 0.686 | 0.617 | 1.36 | 1.34 | 0.525 | 0.955 | 0.586 | 0.485 | 0.945 | 0.607 | 0.555 | 0.697
0.825 | 0.622 | 0.697 | KELANYYKLHH [AK7_Y390] | 0.708 | 4.12 | 1.89 | 2.93 | 1.83 | 0.383 | 0.685 | 0.453 | 0.495 | 2.44 | 0.844 | 0.497 | 0.509
0.977 | 0.894 | 0.545 | TQFWRYFAGNL [SLC25A5_Y112_L111R] | 0.918 | 0.6 | 0.589 | 0.494 | 0.655 | 0.351 | 1.05 | 0.509 | 0.493 | 0.951 | 0.433 | 1.55 | 0.489
0.875 | 0.727 | 0.514 | GIKAAYEAELG [LMNA_Y81] | 0.713 | 0.531 | 0.507 | 0.502 | 0.496 | 0.446 | 0.797 | 0.597 | 0.438 | 0.691 | 0.404 | 0.704 | 0.392
0.765 | 0.666 | 0.438 | DYSLKYPTDIP [APC_Y1183_A1184P] | 0.867 | 0.618 | 0.478 | 0.691 | 0.866 | 0.476 | 0.844 | 0.534 | 0.503 | 0.852 | 0.549 | 0.52 | 0.442
1.95 | 1.92 | 1.86 | LHRAHYDLHHT [AHSG_Y314_R317H] | 0.836 | 0.69 | 0.674 | 0.511 | 0.857 | 1.36 | 1.01 | 0.637 | 0.553 | 0.646 | 0.496 | 0.781 | 0.505
1.51 | 1.4 | 0.95 | VVLVSYVPSSQ [SH2B1_Y624] | 0.784 | 0.557 | 0.454 | 0.506 | 0.703 | 0.388 | 0.874 | 0.452 | 0.433 | 0.751 | 0.424 | 0.614 | 0.336
0.891 | 26.3 | 19.8 | TVSRPYSFIEF [SEC22B_Y110] | 0.746 | 0.527 | 0.403 | 3.02 | 2.19 | 11.3 | 1.12 | 0.993 | 0.705 | 0.848 | 6.03 | 0.639 | 3.15
0.957 | 0.685 | 0.767 | KELAPYDENWF [RPS19_Y48] | 1.2 | 0.506 | 0.618 | 0.563 | 0.664 | 0.53 | 1.12 | 0.506 | 0.517 | 1.06 | 0.421 | 0.597 | 0.458
0.791 | 0.994 | 0.489 | AAVNGYVFGGG [ECHS1_Y137_A138V] | 0.596 | 0.419 | 0.398 | 0.437 | 0.629 | 0.414 | 0.542 | 0.404 | 0.429 | 0.591 | 0.401 | 0.582 | 0.461
1.72 | 1.84 | 1.49 | ITNLLYHLVGW [GBA_Y412_V414L] | 1.09 | 2.74 | 1.04 | 6.54 | 5.47 | 3.17 | 0.866 | 2.56 | 4.8 | 1.47 | 8.16 | 0.703 | 2.99
1.05 | 5.38 | 0.899 | NSIGNYFKPWF [DHCR24_Y299_YF] | 1.03 | 8.66 | 5.26 | 1.64 | 1.41 | 0.424 | 0.99 | 0.45 | 0.492 | 7.86 | 4.54 | 8.06 | 0.458
1.01 | 1 | 1.36 | QRIHDYYEHRY [HCN4_Y554] | 1.25 | 1.17 | 1.23 | 15.7 | 9.67 | 0.903 | 0.974 | 0.657 | 0.825 | 0.794 | 0.433 | 0.445 | 0.478
0.655 | 0.608 | 0.464 | CTLSVYRQLHN [LUZP1_Y1036] | 1.1 | 0.622 | 0.631 | 0.513 | 0.823 | 0.536 | 1.29 | 0.466 | 0.456 | 1.07 | 0.435 | 0.771 | 0.412
